Usually AUC(0-t) stands for exposure summed from dosing to a finite time, without extrapolation to infinity. One may read the Cmax as the maximum level reached in the sampled fluid or tissue. One may read the CL/F as clearance divided by bioavailability, as obtained after extravascular dosing.

Series [1] addresses human GLP-1 receptor (GLP-1R) (human, UniProt P43220 24-463). Description: cell-based or functional assay.
Series [2] in a line: analytical gel filtration (Superdex200), apparent molecular weight. It counts as physicochemical. The text has this: In the fusion protein of GLP-1(A8G/G22E)-Fn8-COL18NC1 described in example 4, the flexible unstructured linker between Fn8 and COL18NC1 contains six residues (GGGSGG; SEQ ID NO:89). To generate the flexible un-structured linkers with different lengths, we have synthesized the genes GLP-1(A8G/G22E/R36S)-Fn8-COL18NC1-20, GLP-1(A8G/G22E/R36S)-Fn8-COL18NC1-30, GLP-1(A8G/G22E/R36S)-Fn8-COL18NC1-54 and GLP-1(A8G/G22E/R36S)-Fn8-COL18NC1-60. In these genes, the length of the flexible unstructured polypeptide linker between Fn8 and COL18NC1 contained 20, 30, 54 and 60 residues, respectively. The protein sequences of GLP-1(A8G/G22E/R36S)-Fn8-COL18NC1-20, GLP-1(A8G/G22E/R36S)-Fn8-COL18NC1-30, GLP-1(A8G/G22E/R36S)-Fn8-COL18NC1-54 and GLP-1(A8G/G22E/R36S)-Fn8-COL18NC1-60 are listed as SEQ ID NO:8-11. The synthetic genes of GLP-1(A8G/G22E/R36S)-Fn8-COL18NC1-20, GLP-1(A8G/G22E/R36S)-Fn8-COL18NC1-30, GLP-1(A8G/G22E/R36S)-Fn8-COL18NC1-54 and GLP-1(A8G/G22E/R36S)-Fn8-COL18NC1-60 were grafted to the pET29b by NdeI and XhoI for protein expressions. The expression and purification of these fusion proteins were carried out using similar protocols described in example 3. To estimate the hydrodynamic radius and/or the Rg of the fusion proteins, the purified proteins were loaded on an analytical gel filtration column Superdex200 (GE Healthcare).
Moreover, the flexible unstructured linker between the therapeutic polypeptide and the scaffold protein may adjust the hydrodynamic radius and/or the Rg of the fusion molecule in a tunable manner.
The apparent molecular weights of the fusion proteins were estimated by use of an analytical gel filtration column Superdex-200 (GE Healthcare) mounted on the AKTA FPLC system (GE Healthcare). The purified fusion proteins GLP-1-Fn8, GLP-1-Fn8-COL18NC1, GLP-1(A8G/G22E/R36G)-Fn8-p246-COL18NC1 were loaded on the Superdex200 column. GLP-1-Fn8 is a fusion protein of GLP-1 and Fn8 and contains the first 144 amino acid residues of the fusion protein GLP-1-Fn8-COL18NC1 (SEQ ID NO:2). […] The genuine molecular weights for the fusion proteins GLP-1-Fn8 monomer, GLP-1-Fn8-COL18NC1 trimer, and GLP-1(A8G/G22E/R36G)-Fn8-p246-COL18NC1 trimer were ˜15 Kd, 65 Kd and 123Kd, respectively.
On the technique in general: SEC sorts molecules by how far they enter the pores of the column.

Series [3] in a line: pharmacokinetics in Sprague-Dawley rats, sandwich ELISA (Example 6). It counts as in vivo. The following applies: Sprague-Dawley rat, intraperitoneal, 0.66/0.72/0.75/0.78 mg/kg respectively. The protocol: To evaluate the pharmacokinetics profiles for the GLP-1 containing fusion proteins generated using the method of the invention, we purified GLP-1(A8G/G22E/R36S)-Fn8-COL18NC1, GLP-1(A8G/G22E/R36S)-Fn8-COL18NC1-20, GLP-1(A8G/G22E/R36S)-Fn8-COL18NC1-30, GLP-1(A8G/G22E/R36S)-Fn8-COL18NC1-54 in PBS buffer, pH 7.2. These fusion proteins were administered on Sprague-Dawley (SD) rats by intraperitoneal injections at the doses of 0.66 mg/kg, 0.72 mg/kg, 0.75 mg/kg, 0.78 mg/kg animal respectively. Blood samples were taken at various time points after injections such as 0-min, 30-min, 1-hour, 2-hour, 4-hour, 8-hour, 24-hour, 48-hour, 3-day, 4-day, 5-day. 7-day, 10-day. The serum samples were centrifuged and kept at −80° C. freezer.
(§1) The GLP-1 concentrations within the serum samples were examined by use of the sandwich ELISA method. The rabbit polyclonal antibody against human Fibronectin at the concentration of 3 ug/ml (Ab299, Abcam company) was coated on ELISA plate for 1 hour at room temperature. Then the plate was washed by PBST buffer three times and the wells were blocked by PBS with 10% FBS for 1 hour at room temperature. The plate was washed three times before the serum samples containing GLP-1 fusion proteins were added. The serum samples could be diluted to 20-10000 folds before use. The ELISA plate was incubated with the serum samples at room temperature for 1 hour and then washed by PBST buffer five times. Then mouse monoclonal against human GLP-1 peptide antibody (sc57510, Santa Cruz Biotechology) at the concentration of 1 ug/ml in PBST buffer was added to the wells. The plate was washed extensively after incubation of 1 hour at room temperature. The secondary antibody, […] HRP conjugated antibody (Beijing ZSGB-Bio company, ZB 5301), was added into the wells and the color was developed using TMB (3,3′,5,5′-tetramethylbenzidine, BD Biosciences, Cat 555214). The plate reader (Bio-Rad microplate reader Model 680) was utilized to obtain the OD450 readings. This method has been calibrated using purified proteins first.
The pharmacokinetics parameters were obtained by using the WinNonlin software (Table 3).

A short description of series [4]: pharmacokinetics in SD rats, sandwich ELISA (Example 15). In kind it is in vivo, SD (Sprague-Dawley) rats. The following applies: intraperitoneal, 5 nmol/kg. The protocol: To evaluate the pharmacokinetics profiles for the GLP-1 containing fusion proteins generated using the method of the invention, we purified the recombinant fusion proteins of GLP-1-Fn8-COL18NC1, GLP1(A8G/G22E/R36G)-Fn8-p246-COL18NC1 and GLP1(A8G/G22E/R36G)-Fn8-p285-COL18NC1 in PBS buffer, pH 7.2. These fusion proteins were administered into SD (Sprague-Dawley) rats by intraperitoneal injections at the dose of 5 nmol/kg for animals, respectively. Blood samples were taken at various time points after injections such as 0-min, 30-min, 1-hour, 2-hour, 4-hour, 6-hour, 8-hour, 24-hour, 48-hour, 3-day, 4-day, 5-day, 6-day and 7-day. The serum samples were centrifuged and kept at −80° C. freezer.
as §1, with “within the samples were” for “within the serum samples were”, “Santa Cruz Biotechnology) at the” for “Santa Cruz Biotechology) at the”
The pharmacokinetics parameters were obtained by using the WinNonlin software (Table 5).

B1: GLP-1(A8G/G22E/R36S)-Fn8-COL18NC1-30 (ligand)
chain: HGEGTFTSDVSSYLEEQAAKEFIAWLVKGSGGGGSGGAVPPPTDLRFTNIGPDTMRVTWAPPPSIDLTNFLVRYSPVKNEEDVAELSISPSDNAVVLTNLLPGTEYVVSVSSVYEQHESTPLRGRQKTGGGGGSGGGGSASSASTGGPSGGGGSGGGGSGASSGVRLWATRQAMLGQVHEVPEGWLIFVAEQEELYVRVQNGFRKVQLEARTPLPRG
With B1, the “EC50 (nM) measured by cAMP assay” value in series [1] was found to be 1.3 nM. For the same molecule, the apparent molecular weight result in series [2] is “larger apparent molecular weight than their genuine molecular weight”. In series [3], the “AUC(0-t)” value worked out at 47580 ng·h/mL, the AUCinf is 47600 ng·h/mL, the CL was determined as 0.7673 mL/min/kg and the Cmax came to 2150 ng/mL. Also, in series [3], the T½ amounted to 7.22 h and the V amounted to 0.47981 L/kg.

B2: GLP-1(A8G/G22E/R36S)-Fn8-COL18NC1 (ligand)
chain: HGEGTFTSDVSSYLEEQAAKEFIAWLVKGSGGGGSGGGGSAVPPPTDLRFTNIGPDTMRVTWAPPPSIDLTNFLVRYSPVKNEEDVAELSISPSDNAVVLTNLLPGTEYVVSVSSVYEQHESTPLRGRQKTGGGGSGGGASSGVRLWATRQAMLGQVHEVPEGWLIFVAEQEELYVRVQNGFRKVQLEARTPLPRG
As to B2, the “EC50 (nM) measured by cAMP assay” value in series [1] was 1.3 nM. In addition, in series [2], the apparent molecular weight was approximately 100 Kd.

B3: GLP-1-Fn8: fusion protein of GLP-1 and Fn8, first 144 residues of SEQ ID NO:2; monomer in solution (protein)
chain: HAEGTFTSDVSSYLEGQAAKEFIAWLVKGRGGGGSGGGGSAVPPPTDLRFTNIGPDTMRVTWAPPPSIDLTNFLVRYSPVKNEEDVAELSISPSDNAVVLTNLLPGTEYVVSVSSVYEQHESTPLRGRQKTGGGGSGGGASSGV
As for B3, the apparent molecular weight in series [2] is given as approximately 20 Kd.

B4: GLP-1(A8G/G22E/R36S)-Fn8-COL18NC1-54 (ligand)
chain: HGEGTFTSDVSSYLEEQAAKEFIAWLVKGSGGGGSGGAVPPPTDLRFTNIGPDTMRVTWAPPPSIDLTNFLVRYSPVKNEEDVAELSISPSDNAVVLTNLLPGTEYVVSVSSVYEQHESTPLRGRQKTGGGGGSGGGGSTASSASTGGPSGGGGSGGGGSAPSSGSTSGGTAAGGGGSGGGGSGASSGVRLWATRQAMLGQVHEVPEGWLIFVAEQEELYVRVQNGFRKVQLEARTPLPRG
Consider B4, for which the “EC50 (nM) measured by cAMP assay” value in series [1] stood at 0.5 nM. In addition, in series [2], the apparent molecular weight is recorded as approximately 200 Kd. Further, in series [3], the exposure AUC(0-t) came out at 86640 ng·h/mL, the AUCinf was 86670 ng·h/mL, the CL is 0.451 mL/min/kg and the highest concentration (Cmax) was determined as 2640 ng/mL. Moreover, in series [3], the T½ amounted to 9.10 h and the V turned out to be 0.35086 L/kg.

B5: GLP-1(A8G/G22E/R36S)-Fn8-COL18NC1-60 (ligand)
chain: HGEGTFTSDVSSYLEEQAAKEFIAWLVKGSGGGGSGGAVPPPTDLRFTNIGPDTMRVTWAPPPSIDLTNFLVRYSPVKNEEDVAELSISPSDNAVVLTNLLPGTEYVVSVSSVYEQHESTPLRGRQKTGGGGSGGGSGGGSTASSASTKGPSGGGSGGGSGGGSAPSSKSTSGGTAAGGGSGGGSGGGSGASSGVRLWATRQAMLGQVHEVPEGWLIFVAEQEELYVRVQNGFRKVQLEARTPLPRG
Regarding B5, the “EC50 (nM) measured by cAMP assay” value in series [1] was 0.5 nM. The apparent molecular weight in series [2] is reported as approximately 200 Kd.

B6: GLP1(A8G/G22E/R36G)-Fn8-p285-COL18NC1: fusion with Fn8, pCloud p285 and COL18NC1; SEQ ID NO: 23 (protein)
chain: HGEGTFTSDVSSYLEEQAAKEFIAWLVKGGGSGGGSGGGSGGGSGGGSGSGGAVPPPTDLRFTNIGPDTMRVTWAPPPSIDLTNFLVRYSPVKNEEDVAELSISPSDNAVVLTNLLPGTEYVVSVSSVYEQHESTPLRGRQKTGGGGSGGGSGSGSESGSGGGSTSSGTGSETESPGSGSESGSGPSSAGSGSGSESGSGSGSSGPGSTGGSGSESGSGPGSSGTGGTATGSGSESGSGPGSSGPGSTGSGSGSESGSGSGSSGTGSTGGSGSESGSGPGSPRPGSTGTGSGSESGSGPGSSERGSAGGSGSESGSGTSESSASGSTGGSGSESGSGSESGSGSGSESGSGPESPGSGGSGSESGSGTSGSTGSGSESGSGPGSSGPGSTGSGSGSESGSGSGSSGTGSTGGSGSESGSGGGSGGGSGGGASSGVRLWATRQAMLGQVHEVPEGWLIFVAEQEELYVRVQNGFRKVQLEARTPLPRG
B6: in series [4] (Rats), the AUCall stood at 475300 ng·h/mL, the CL/F amounted to 0.0228 mL/min/kg, the Cmax is 7980 ng/mL and the T½ turned out to be 31.2 h. The molecule further displayed a Vss in series [4] (Rats) of 0.062 L/kg. Further, the half life in series [4] (SD rats) amounted to 31.2 h.

Values taken from patent publication US10246503B2, “Method of improving the pharmacokinetic profile of a therapeutic polypeptide and the use thereof” (BEIJING ANXINHUAIDE BIOTECH. CO., LTD, priority 2012, dated 2019).
